Assay results published in paper PMC3268006 (Journal of Molecular Biology, 2011).

B1: Fab S4 (Fab, V domains shown)
VH: EVQLVQSGAEVKKPGSSVKVSCKASGGTFSSYAISWVRQAGQGLEWMGGIIPIFGTANYAQKFQGRVTITADESTSTAYMELSSLRSEDTAVYYCARTFHIRRYRSGYYDKMDHWGQGTLVTVSS
VL: VLTQPPSVSGAPGQRVTISCSGSSSNIGSNYVSWYQQKPGTAPKLLIYDNNQRPSGVPDRFSGSKSGTSAVLAITGLQSEDEADYYCQSRDISQYVFGGGTKLTVL
B2: Fab S4 H R100bK (Fab, V domains shown)
VH: EVQLVQSGAEVKKPGSSVKVSCKASGGTFSSYAISWVRQAGQGLEWMGGIIPIFGTANYAQKFQGRVTITADESTSTAYMELSSLRSEDTAVYYCARTFHIRRYKSGYYDKMDHWGQGTLVTVSS
VL: VLTQPPSVSGAPGQRVTISCSGSSSNIGSNYVSWYQQKPGTAPKLLIYDNNQRPSGVPDRFSGSKSGTSAVLAITGLQSEDEADYYCQSRDISQYVFGGGTKLTVL
B3: Fab S4 H R100bA (Fab, V domains shown)
VH: EVQLVQSGAEVKKPGSSVKVSCKASGGTFSSYAISWVRQAGQGLEWMGGIIPIFGTANYAQKFQGRVTITADESTSTAYMELSSLRSEDTAVYYCARTFHIRRYASGYYDKMDHWGQGTLVTVSS
VL: VLTQPPSVSGAPGQRVTISCSGSSSNIGSNYVSWYQQKPGTAPKLLIYDNNQRPSGVPDRFSGSKSGTSAVLAITGLQSEDEADYYCQSRDISQYVFGGGTKLTVL
B4: Fab A11 H R100aA (Fab, V domains shown)
VH: EVQLVQSGGGLVKPGGSLRLSCAASGFTFSSYAMSWVRQAPGKGLEWVSAISGSGGSTYYADSVKGRFTISRDNSKNTLYLQMSSLRAEDTAVYYCVKDLGIAAARFVSGAFDIWGQGTMVTVSS
VL: EIVLTQSPGTLSLSPGERATLSCRASQSVSSSYLAWYQQKPGQAPRLLIYGASTRATGIPARFSGSGSGTDFTLTINSLEPEDFAVYYCQQRSNWPPGYTFGQGTKVEIT
B5: Fab A11 H R100bA (Fab, V domains shown)
VH: EVQLVQSGGGLVKPGGSLRLSCAASGFTFSSYAMSWVRQAPGKGLEWVSAISGSGGSTYYADSVKGRFTISRDNSKNTLYLQMSSLRAEDTAVYYCVKDLGIAARAFVSGAFDIWGQGTMVTVSS
VL: EIVLTQSPGTLSLSPGERATLSCRASQSVSSSYLAWYQQKPGQAPRLLIYGASTRATGIPARFSGSGSGTDFTLTINSLEPEDFAVYYCQQRSNWPPGYTFGQGTKVEIT
B6: Fab A11 H R100bK (Fab, V domains shown)
VH: EVQLVQSGGGLVKPGGSLRLSCAASGFTFSSYAMSWVRQAPGKGLEWVSAISGSGGSTYYADSVKGRFTISRDNSKNTLYLQMSSLRAEDTAVYYCVKDLGIAARKFVSGAFDIWGQGTMVTVSS
VL: EIVLTQSPGTLSLSPGERATLSCRASQSVSSSYLAWYQQKPGQAPRLLIYGASTRATGIPARFSGSGSGTDFTLTINSLEPEDFAVYYCQQRSNWPPGYTFGQGTKVEIT

Biological target: matriptase (MT-SP1), human protease domain (human, UniProt Q9Y5Y6)
Sequence (Q9Y5Y6 615-855): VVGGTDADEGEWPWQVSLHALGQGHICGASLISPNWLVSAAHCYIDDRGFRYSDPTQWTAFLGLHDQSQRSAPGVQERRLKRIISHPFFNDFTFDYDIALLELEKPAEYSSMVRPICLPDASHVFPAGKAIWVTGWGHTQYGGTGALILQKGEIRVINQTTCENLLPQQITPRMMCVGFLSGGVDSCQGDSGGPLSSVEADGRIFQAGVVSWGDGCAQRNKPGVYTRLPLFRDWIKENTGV
Test: steady-state enzyme inhibition kinetics

Binder | Ki [nM]
B1 | 1
B2 | 110
B3 | 93
B4 | 1.5
B5 | 180
B6 | 180
